Measured values reported in patent US20240199762A1 (PHILOGEN S P A, published 2024).

T1: ovine FAP (oFAP) extracellular domain (ECD) (sheep)
T1 construct: also called oFAP-ECD
T1 chain: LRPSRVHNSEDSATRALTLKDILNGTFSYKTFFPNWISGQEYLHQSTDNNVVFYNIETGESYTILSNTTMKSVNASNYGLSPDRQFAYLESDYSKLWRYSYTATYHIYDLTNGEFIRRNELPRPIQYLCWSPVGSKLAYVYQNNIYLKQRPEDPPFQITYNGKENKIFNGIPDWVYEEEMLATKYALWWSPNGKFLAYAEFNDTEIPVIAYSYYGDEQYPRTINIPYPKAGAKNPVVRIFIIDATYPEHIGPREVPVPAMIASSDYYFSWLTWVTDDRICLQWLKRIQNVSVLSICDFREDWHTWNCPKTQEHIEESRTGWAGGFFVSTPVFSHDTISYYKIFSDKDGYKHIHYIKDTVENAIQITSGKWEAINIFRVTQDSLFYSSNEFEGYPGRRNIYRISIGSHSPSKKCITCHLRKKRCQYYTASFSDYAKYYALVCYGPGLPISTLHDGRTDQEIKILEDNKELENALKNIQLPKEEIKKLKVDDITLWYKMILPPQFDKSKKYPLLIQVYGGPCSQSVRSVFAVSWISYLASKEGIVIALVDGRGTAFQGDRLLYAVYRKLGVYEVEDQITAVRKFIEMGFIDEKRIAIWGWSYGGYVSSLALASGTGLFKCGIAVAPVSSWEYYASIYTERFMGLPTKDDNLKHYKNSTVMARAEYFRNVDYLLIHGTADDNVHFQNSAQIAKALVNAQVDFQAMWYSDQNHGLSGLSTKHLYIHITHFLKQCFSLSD

T2: porcine FAP (pFAP) extracellular domain (ECD) (pig, UniProt A5D7B7 39-760 (bovine entry))
T2 construct: also called pFAP-ECD
T2 chain: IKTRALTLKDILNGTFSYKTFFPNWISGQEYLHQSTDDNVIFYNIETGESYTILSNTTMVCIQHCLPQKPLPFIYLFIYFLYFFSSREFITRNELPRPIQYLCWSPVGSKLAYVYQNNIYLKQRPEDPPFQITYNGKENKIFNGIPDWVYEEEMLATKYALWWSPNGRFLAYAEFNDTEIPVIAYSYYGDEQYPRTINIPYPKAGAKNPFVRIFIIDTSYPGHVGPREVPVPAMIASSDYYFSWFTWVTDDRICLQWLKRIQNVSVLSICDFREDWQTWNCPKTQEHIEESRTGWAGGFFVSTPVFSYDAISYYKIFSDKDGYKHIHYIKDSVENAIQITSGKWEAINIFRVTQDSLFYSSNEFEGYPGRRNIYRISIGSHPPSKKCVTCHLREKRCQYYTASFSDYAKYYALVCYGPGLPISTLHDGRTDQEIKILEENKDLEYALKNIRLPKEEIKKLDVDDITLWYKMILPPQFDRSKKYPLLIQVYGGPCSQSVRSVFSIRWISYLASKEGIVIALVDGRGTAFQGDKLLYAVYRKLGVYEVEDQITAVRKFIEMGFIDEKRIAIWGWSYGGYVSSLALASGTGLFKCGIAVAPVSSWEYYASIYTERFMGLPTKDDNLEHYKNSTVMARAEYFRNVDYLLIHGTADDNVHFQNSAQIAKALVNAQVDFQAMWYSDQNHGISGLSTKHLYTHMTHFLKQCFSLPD

T3: human FAP expressed on transduced cells (SKRC52-hFAP, HT-1080-hFAP) (human, UniProt Q12884 1-760)
T3 construct: whole, on cells; Also the target in SKRC52-hFAP tumor cryosections and in tumors of tumor-bearing mice; also called cell-expressed human FAP
T3 sequence (looked up): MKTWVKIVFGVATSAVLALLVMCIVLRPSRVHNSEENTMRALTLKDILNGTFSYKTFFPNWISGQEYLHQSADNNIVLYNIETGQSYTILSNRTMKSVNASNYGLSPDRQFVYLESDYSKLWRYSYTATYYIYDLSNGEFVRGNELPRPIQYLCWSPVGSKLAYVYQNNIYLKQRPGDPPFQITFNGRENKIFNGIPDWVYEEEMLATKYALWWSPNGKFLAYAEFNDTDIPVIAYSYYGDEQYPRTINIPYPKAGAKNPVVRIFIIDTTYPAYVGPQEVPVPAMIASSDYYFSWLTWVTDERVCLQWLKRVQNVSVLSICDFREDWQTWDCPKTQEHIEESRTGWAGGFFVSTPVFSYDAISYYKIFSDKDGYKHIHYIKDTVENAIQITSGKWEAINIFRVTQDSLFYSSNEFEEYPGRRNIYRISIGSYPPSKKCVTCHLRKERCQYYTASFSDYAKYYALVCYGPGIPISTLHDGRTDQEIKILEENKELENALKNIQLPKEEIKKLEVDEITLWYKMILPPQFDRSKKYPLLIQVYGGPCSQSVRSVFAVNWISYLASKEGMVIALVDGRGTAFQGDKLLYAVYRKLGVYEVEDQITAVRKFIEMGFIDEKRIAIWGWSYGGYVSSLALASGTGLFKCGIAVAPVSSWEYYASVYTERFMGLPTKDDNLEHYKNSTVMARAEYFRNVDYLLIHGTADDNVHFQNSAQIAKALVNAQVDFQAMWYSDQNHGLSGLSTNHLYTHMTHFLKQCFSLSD


Assays:
[1] = biological target: T1, ovine FAP (oFAP) extracellular domain …; assay: ELISA, 120 nM oFAP-ECD coated, antibody at 5 ug/mL
Protocol: (§1) Cross-reactivity of the anti-hFAP antibodies with oFAP-ECD and pFAP-ECD was tested using ELISA. 120 nM of oFAP-ECD or pFAP-ECD was coated on Maxisorp plates overnight at 4° C. […] Specifically, the C5 antibody was employed in IgG2a format, while all other antibodies, including the 7NP2 antibody, were in IgG1 format. The differences between the IgG2a and IgG1 formats are not expected to affect binding to FAP. After 3 washes with PBS, binding of the antibodies to oFAP-ECD and pFAP-ECD was detected using an anti-human or anti-murine antibody HRP conjugate.

[2] = biological target: T2, porcine FAP (pFAP) extracellular domain …; assay: ELISA, 120 nM pFAP-ECD coated on Maxisorp plates
Protocol: as §1

[3] = biological target: T3, human FAP expressed on transduced cells …; assay: immunofluorescence on SKRC52-hFAP tumor cryosections, FITC conjugate
Protocol: Immunofluorescence experiments were performed with 7NP2 and KSF (negative control), both in IgG1 format on cryosections of renal cell carcinoma SKRC52-hFAP tumor tissue slides, which were transduced to express human FAP. The 7NP2 and KSF IgG1 molecules were conjugated to FITC to allow detection. Cryostat sections (10 μm) were stained using the 7NP2 and KSF IgG1 conjugates at a final concentration of 10 μg/mL and detected with rabbit anti-FITC and goat anti-rabbit AlexaFluor488 antibody. Slides were mounted with fluorescent mounting medium and analyzed with a microscope (FIG. 5).

Binder | binding result [1] | binding result [2] | binding result [3]
anti-FAP antibody 7NP2 in IgG1 format (antibody, V domains shown, also called 7NP2 IgG1; 7NP2(IgG1)) VH: EVQLLESGGGLVQPGGSLRLSCAASGFTFSSYAMSWVRQAPGKGLEWVSAIGSVGGPTYYADSVKGRFTISRDNSKNTLYLQMNSLRAEDTAVYYCAKRLAWFDYWGQGTLVTVSS VL: EIVLTQSPGTLSLSPGERATLSCRASQSVSSSYLAWYQQKPGQAPRLLIYGASSRATGIPDRFSGSGSGTDFTLTISRLEPEDFAVYYCQQSGKGPLTFGQGTKVEIKR | binds | – | –
anti-hen egg lysozyme antibody KSF in IgG1 format (antibody, V domains shown, Negative control; It was conjugated to FITC in the immunofluorescence and ex vivo experiments; also called KSF IgG1; KSF(IgG1)) VH: not shown VL: SSELTQDPAVSVALGQTVRITCQGDSLRSYYASWYQQKPGQAPVLVIYGKNNRPSGIPDRFSGSSSGNTASLTITGAQAEDEADYYCQSSPLNRLAVVFGGGTKLTVLG | – | no binding (tested: 5 µg/mL) | no binding (tested: 10 µg/mL)
